Experimental data reported in patent US20150377889.

Molecular target: recombinant wild type full-length human galectin-3, His-tagged (unphosphorylated)
Sequence (chain, as listed by the source): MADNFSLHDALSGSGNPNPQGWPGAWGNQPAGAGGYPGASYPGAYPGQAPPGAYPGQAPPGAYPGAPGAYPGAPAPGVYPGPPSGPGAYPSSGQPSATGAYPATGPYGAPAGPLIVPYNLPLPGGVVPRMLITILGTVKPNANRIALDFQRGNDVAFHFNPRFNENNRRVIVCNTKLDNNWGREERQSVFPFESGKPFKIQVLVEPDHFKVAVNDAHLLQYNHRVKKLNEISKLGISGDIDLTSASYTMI

B1: active c-Abl kinase (protein)
chain: PVNSLEKHSWYHGPVSRNAAEYLLSSGINGSFLVRESESSPGQRSISLRYEGRVYHYRINTASDGKLYVSSESRFNTLAELVHHHSTVADGLITTLHYPAPKRNKPTVYGVSPNYDKWEMERTDITMKHKLGGGQYGEVYEGVWKKYSLTVAVKTLKEDTMEVEEFLKEAAVMKEIKHPNLVQLLGVCTREPPFYIITEFMTYGNLLDYLRECNRQEVNAVVLLYMATQISSAMEYLEKKNFIHRDLAARNCLVGENHLVKVADFGLSRLMTGDTYTAHAGAKFPIKWTAPESLAYNKFSIKSDVWAFGVLLWEIATYGMSPYPGIDLSQVYELLEKDYRMERPEGCPEKVYELMRACWQWNPSDRPSFAEIHQAFETMFQESSISDEVEKELGKQGVRGAVSTLLQAPELPTKTRTSRRAAEHRDTTDVPEMPHS
- in vitro tyrosine phosphorylation of galectin-3 (c-Abl kinase assay, pTyr blot): phosphorylating galectin-3 in vitro with active c-Abl
